From patent US20200165325A1

Tests used:
[1] = biological target: Env (gp120) of HIV-1 strain 0330.v4.c3 (HIV-1)
[2] = biological target: Env (gp120) of HIV-1 strain 1054_07_TC4_1499 (HIV-1)
[3] = biological target: Env (gp120) of HIV-1 strain 231965.c01 (HIV-1)
[4] = biological target: Env (gp120) of HIV-1 strain 3016.v5.c45 (HIV-1)
[5] = biological target: Env (gp120) of HIV-1 strain 3718.v3.c11 (HIV-1)
[6] = biological target: Env (gp120) of HIV-1 strain 62357_14_D3_4589 (HIV-1)
[7] = biological target: Env (gp120) of HIV-1 strain 6480.v4.c25 (HIV-1)
[8] = biological target: Env (gp120) of HIV-1 strain 6540.v4.c1 (HIV-1)
[9] = biological target: Env (gp120) of HIV-1 strain 6811.v7.c18 (HIV-1)
[10] = biological target: Env (gp120) of HIV-1 strain 89-F1_2_25 (HIV-1)
[11] = biological target: Env (gp120) of HIV-1 strain C2101.c01 (HIV-1)
[12] = biological target: Env (gp120) of HIV-1 strain CNE21 (HIV-1)
[13] = biological target: Env (gp120) of HIV-1 strain Ce0393_C3 (HIV-1)
[14] = biological target: Env (gp120) of HIV-1 strain Ce2060_G9 (HIV-1)
[15] = biological target: Env (gp120) of HIV-1 strain Du172.17 (HIV-1)
[16] = biological target: Env (gp120) of HIV-1 strain Du422.1 (HIV-1)
[17] = biological target: Env (gp120) of HIV-1 strain HIV-16845-2.22 (HIV-1)
[18] = biological target: Env (gp120) of HIV-1 strain Q23.17 (HIV-1)
[19] = biological target: Env (gp120) of HIV-1 strain Q842.d12 (HIV-1)
[20] = biological target: Env (gp120) of HIV-1 strain QH0692.42 (HIV-1)
[21] = biological target: Env (gp120) of HIV-1 strain REJO4541.67 (HIV-1)
[22] = biological target: Env (gp120) of HIV-1 strain RHPA4259.7 (HIV-1)
[23] = biological target: Env (gp120) of HIV-1 strain TRJO4551.58 (HIV-1)
[24] = biological target: Env (gp120) of HIV-1 strain WITO4160.33 (HIV-1)
[25] = biological target: Env (gp120) of HIV-1 strain X1254_c3 (HIV-1)
[26] = biological target: Env (gp120) of HIV-1 strain ZM135M.PL10a (HIV-1)
[27] = biological target: Env (gp120) of HIV-1 strain ZM233M.PB6 (HIV-1)
[28] = biological target: Env (gp120) of HIV-1 strain ZM53M.PB12 (HIV-1)

Substance | neutralization IC50 [1] [µg/mL] | neutralization IC50 [2] [µg/mL] | neutralization IC50 [3] [µg/mL] | neutralization IC50 [4] [µg/mL] | neutralization IC50 [5] [µg/mL] | neutralization IC50 [6] [µg/mL] | neutralization IC50 [7] [µg/mL] | neutralization IC50 [8] [µg/mL] | neutralization IC50 [9] [µg/mL] | neutralization IC50 [10] [µg/mL] | neutralization IC50 [11] [µg/mL] | neutralization IC50 [12] [µg/mL] | neutralization IC50 [13] [µg/mL] | neutralization IC50 [14] [µg/mL] | neutralization IC50 [15] [µg/mL] | neutralization IC50 [16] [µg/mL] | neutralization IC50 [17] [µg/mL] | neutralization IC50 [18] [µg/mL] | neutralization IC50 [19] [µg/mL] | neutralization IC50 [20] [µg/mL] | other results
NIH45-46 IgG (antibody) | 0.09 | 0.113 | 0.051 | > 50 | 19.6 | 0.06 | 0.032 | > 50 | 0.035 | > 50 | 4.24 | 6.01 | 0.334 | 0.058 | > 50 | > 50 | 5 | 0.14 | 0.031 | 0.72 | neutralization IC50 [21]: 0.014 µg/mL; neutralization IC50 [22]: 0.017 µg/mL; neutralization IC50 [23]: 0.04 µg/mL; neutralization IC50 [24]: 0.06 µg/mL; neutralization IC50 [25]: 0.032 µg/mL; neutralization IC50 [26]: 0.59 µg/mL; neutralization IC50 [27]: 2.5 µg/mL; neutralization IC50 [28]: 0.175 µg/mL
NIH45-46^G54F IgG (antibody) | 0.04 | 0.076 | 0.022 | 5.82 | 0.32 | 0.04 | 0.014 | > 50 | 0.017 | > 50 | 0.11 | 0.12 | 0.04 | 0.022 | > 50 | > 50 | 0.59 | 0.03 | 0.011 | 0.56 | neutralization IC50 [21]: 0.007 µg/mL; neutralization IC50 [22]: 0.005 µg/mL; neutralization IC50 [23]: 0.03 µg/mL; neutralization IC50 [24]: 0.02 µg/mL; neutralization IC50 [25]: 0.011 µg/mL; neutralization IC50 [26]: 0.13 µg/mL; neutralization IC50 [27]: 0.22 µg/mL; neutralization IC50 [28]: 0.08 µg/mL
NIH45-46^G54W IgG (antibody) | 0.03 | 0.04 | < 0.001 | 1.47 | 0.01 | 0.02 | 0.004 | > 50 | < 0.001 | > 50 | 0.04 | 0.03 | 0.013 | 0.005 | 3.65 | > 50 | 0.45 | 0.01 | 0.005 | 0.37 | neutralization IC50 [21]: 0.002 µg/mL; neutralization IC50 [22]: < 0.001 µg/mL; neutralization IC50 [23]: 0.01 µg/mL; neutralization IC50 [24]: 0.01 µg/mL; neutralization IC50 [25]: 0.002 µg/mL; neutralization IC50 [26]: 0.04 µg/mL; neutralization IC50 [27]: 0.02 µg/mL; neutralization IC50 [28]: 0.04 µg/mL
NIH45-46^G54Y IgG (antibody) | 0.03 | 0.064 | 0.025 | 17.9 | 0.3 | 0.03 | 0.018 | > 50 | 0.011 | > 50 | 0.09 | 0.07 | 0.036 | 0.021 | > 50 | > 50 | 0.59 | 0.02 | 0.015 | 0.52 | neutralization IC50 [21]: 0.007 µg/mL; neutralization IC50 [22]: 0.007 µg/mL; neutralization IC50 [23]: 0.03 µg/mL; neutralization IC50 [24]: 0.03 µg/mL; neutralization IC50 [25]: 0.013 µg/mL; neutralization IC50 [26]: 0.09 µg/mL; neutralization IC50 [27]: 0.16 µg/mL; neutralization IC50 [28]: 0.06 µg/mL
